Source: PMC7177284, “A Coil-to-Helix Transition Serves as a Binding Motif for hSNF5 and BAF155 Interaction” (International Journal of Molecular Sciences, 2020)
Numbering of substitutions follows the chain as printed. Names and notes keep the numbering of the source.

Tests used:
[1] = biological target: BAF155^SWIRM (SWIRM domain of human BAF155, residues 449–546) (human) (UniProt Q92922); experiment: ITC; VP-ITC, 25 °C, 25 mM sodium phosphate, 100 mM NaCl, 1 mM TCEP, pH 7.0; typically 160 µM hSNF5 injected into 10 µM BAF155^SWIRM or mutant in the cell; single-site model
BAF155^SWIRM (SWIRM domain of human BAF155, residues 449–546) (human), sequence (Q92922 449-546): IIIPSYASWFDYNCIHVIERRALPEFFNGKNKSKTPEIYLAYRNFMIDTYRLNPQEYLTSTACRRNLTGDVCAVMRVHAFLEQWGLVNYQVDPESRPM

[2] = biological target: T1, BAF155^SWIRM (SWIRM domain of human BAF155, residues 449–546) (human, UniProt Q92922 449-546); experiment: as above; settings: both partners purified
T1 construct: human BAF155, SWIRM domain, residues 449-546; 15N- or 13C,15N-labelled for the NMR experiments; also called BAF155/SRG3; source: E. coli BL21 (DE3), purified (Ni-NTA, TEV cleavage, Superdex 200); not shown: His6, N-terminal, cleaved
T1 sequence (Q92922 449-546): as above

[3] = biological target: T1, BAF155^SWIRM (SWIRM domain of human …); experiment: SEC-MALS; Wyatt WTC-030S5 column, 0.5 mL/min, 10 mM HEPES pH 7.0, 100 mM NaCl, 2 mM DTT; hSNF5^171–258 0.2 mM and BAF155^SWIRM 0.3 mM, individually or together; settings: both partners purified
[4] = biological target: T2, BAF155^SWIRM N476A/N479A mutant (human, UniProt Q92922 449-546, N476A | N479A); experiment: ITC; VP-ITC, 25 °C, 25 mM sodium phosphate, 100 mM NaCl, 1 mM TCEP, pH 7.0; typically 160 µM hSNF5 injected into 10 µM BAF155^SWIRM or mutant in the cell; single-site model; settings: both partners purified
T2 construct: human BAF155, SWIRM domain, residues 449-546, N476A and N479A; PDB 6KZ7 holds the wild-type parent of the same limits; source: E. coli BL21 (DE3), purified (Ni-NTA, TEV cleavage, Superdex 200); not shown: His6, N-terminal, cleaved
T2 sequence (Q92922 449-546 N476A/N479A): as the sequence (Q92922 449-546) above, with N28A, N31A counted along it

[5] = biological target: T1, BAF155^SWIRM (SWIRM domain of human …); experiment: as above; settings: both partners purified; remark: listed apart in the source

For “hSNF5^SFH1/171–253 (chimeric mutant with the N-terminal tail region from the yeast protein SFH1) (from UniProt Q12824 185-253) (domain or fragment)”, the Kd [1] was 480 nM and the dH [1] was -13.4 kcal/mol.

B1: hSNF5^179–253 (domain or fragment, human, UniProt Q12824 179-253, looked up)
chain: NASQPEVLVPIRLDMEIDGQKLRDAFTWNMNEKLMTPEMFSEILCDDLDLNPLTFVPAIASAIRQQIESYPTDSI
notes: human SNF5 (hSNF5), residues 179-253; source: E. coli BL21 (DE3), purified (Ni-NTA, TEV cleavage, Superdex 200); not shown: His6, N-terminal, cleaved
With B1 the Kd [2] was 300 ± 50 nM and the dH [2] was -21 ± 0.6 kcal/mol.

B2: hSNF5^183–253 (domain or fragment, human, UniProt Q12824 183-253, looked up)
chain: PEVLVPIRLDMEIDGQKLRDAFTWNMNEKLMTPEMFSEILCDDLDLNPLTFVPAIASAIRQQIESYPTDSI
notes: human SNF5 (hSNF5), residues 183-253; also called whole αN helix-deletion mutant; source: E. coli BL21 (DE3), purified (Ni-NTA, TEV cleavage, Superdex 200); not shown: His6, N-terminal, cleaved
Molecule B2 has a Kd [2] of 290 ± 80 nM and a dH [2] of -18.7 ± 0.8 kcal/mol.

B3: hSNF5^181–253 (domain or fragment, human, UniProt Q12824 181-253, looked up)
chain: SQPEVLVPIRLDMEIDGQKLRDAFTWNMNEKLMTPEMFSEILCDDLDLNPLTFVPAIASAIRQQIESYPTDSI
notes: human SNF5 (hSNF5), residues 181-253; source: E. coli BL21 (DE3), purified (Ni-NTA, TEV cleavage, Superdex 200); not shown: His6, N-terminal, cleaved
Work on B3 yielded a Kd [2] of 300 ± 70 nM and a dH [2] of -12.9 ± 0.4 kcal/mol.

B4: hSNF5^171–258 (N- and C-terminal elongated hSNF5 RPT1 domain) (domain or fragment, human, UniProt Q12824 171-258, looked up)
chain: HDPAVIHENASQPEVLVPIRLDMEIDGQKLRDAFTWNMNEKLMTPEMFSEILCDDLDLNPLTFVPAIASAIRQQIESYPTDSILEDQS
notes: 15N- or 13C,15N-labelled for the NMR experiments; modified pET21b vector; also called human SNF5; SNF5/INI1/BAF47; source: E. coli BL21 (DE3), purified (Ni-NTA, TEV cleavage, Superdex 200); not shown: His6, N-terminal, cleaved
For B4, the “stoichiometry N” value [3] was 1.

B5: hSNF5^186–253 (domain or fragment, human, UniProt Q12824 186-253, looked up)
chain: LVPIRLDMEIDGQKLRDAFTWNMNEKLMTPEMFSEILCDDLDLNPLTFVPAIASAIRQQIESYPTDSI
notes: human SNF5 (hSNF5), residues 186-253; source: E. coli BL21 (DE3), purified (Ni-NTA, TEV cleavage, Superdex 200); not shown: His6, N-terminal, cleaved
With B5 the Kd [2] was 760 ± 80 nM and the dH [2] was -16 ± 0.3 kcal/mol.

B6: hSNF5^174–253 (domain or fragment, human, UniProt Q12824 174-253, looked up)
chain: AVIHENASQPEVLVPIRLDMEIDGQKLRDAFTWNMNEKLMTPEMFSEILCDDLDLNPLTFVPAIASAIRQQIESYPTDSI
notes: human SNF5 (hSNF5), residues 174-253; source: E. coli BL21 (DE3), purified (Ni-NTA, TEV cleavage, Superdex 200); not shown: His6, N-terminal, cleaved
For B6, the Kd [2] was 110 ± 30 nM and the dH [2] was -15.8 ± 0.5 kcal/mol.

B7: hSNF5^171–253 (domain or fragment, human, UniProt Q12824 171-253, looked up)
chain: HDPAVIHENASQPEVLVPIRLDMEIDGQKLRDAFTWNMNEKLMTPEMFSEILCDDLDLNPLTFVPAIASAIRQQIESYPTDSI
notes: source: E. coli BL21 (DE3), purified (Ni-NTA, TEV cleavage, Superdex 200); not shown: His6, N-terminal, cleaved
With B7 the Kd [4] was 140 ± 30 nM, the dH [4] was -17.7 ± 0.7 kcal/mol and the Kd [2] was 110 ± 20 nM. The dH [2] was -19.7 ± 0.3 kcal/mol and the “stoichiometry N” value [5] was 1.

B8: hSNF5^171–253 with the E184A mutation (domain or fragment, human, UniProt Q12824 171-253, looked up)
chain: B7 chain with E14A
notes: as for B7
B8 was tested, and the Kd [2] was 370 ± 100 nM and the dH [2] was -11.2 ± 0.4 kcal/mol.
